Laboratory results taken from patent US20220347304A1 (CYTOKI PHARMA, published 2022).

T1: human IL-22 receptor (human IL-22Ra and human IL-10Rb) on cells (human, UniProt Q8N6P7 16-574; Q08334 20-325)
T1 sequence (looked up) 1: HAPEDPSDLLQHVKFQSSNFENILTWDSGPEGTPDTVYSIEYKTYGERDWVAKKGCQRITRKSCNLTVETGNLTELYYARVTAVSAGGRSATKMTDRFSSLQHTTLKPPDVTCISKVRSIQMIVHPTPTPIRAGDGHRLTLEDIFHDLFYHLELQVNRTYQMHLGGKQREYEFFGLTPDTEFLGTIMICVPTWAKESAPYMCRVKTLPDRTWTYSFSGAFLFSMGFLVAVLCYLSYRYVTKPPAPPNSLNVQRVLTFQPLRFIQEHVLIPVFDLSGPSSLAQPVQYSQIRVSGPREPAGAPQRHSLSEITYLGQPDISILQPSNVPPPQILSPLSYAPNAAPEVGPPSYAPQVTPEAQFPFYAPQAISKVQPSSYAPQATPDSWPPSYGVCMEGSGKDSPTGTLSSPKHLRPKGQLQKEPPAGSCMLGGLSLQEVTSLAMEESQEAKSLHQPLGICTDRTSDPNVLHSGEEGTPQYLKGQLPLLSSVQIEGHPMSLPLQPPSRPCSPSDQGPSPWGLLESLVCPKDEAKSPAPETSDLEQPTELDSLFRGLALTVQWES
T1 sequence (looked up) 2: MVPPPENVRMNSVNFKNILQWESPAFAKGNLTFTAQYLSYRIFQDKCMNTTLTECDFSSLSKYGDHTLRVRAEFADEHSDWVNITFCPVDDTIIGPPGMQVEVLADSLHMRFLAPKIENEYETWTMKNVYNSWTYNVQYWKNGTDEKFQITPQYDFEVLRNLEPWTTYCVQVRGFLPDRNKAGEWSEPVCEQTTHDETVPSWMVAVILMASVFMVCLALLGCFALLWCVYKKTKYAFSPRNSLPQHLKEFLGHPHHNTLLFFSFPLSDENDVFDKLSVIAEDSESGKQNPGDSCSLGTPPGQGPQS


Assays:
Assay in all cases: cell-based or functional assay
[1] = molecular target: T1, human IL-22 receptor (human IL-22Ra and …)
[2] = molecular target: T1, human IL-22 receptor (human IL-22Ra and …); remark: listed apart in the source
[3] = molecular target: T1, human IL-22 receptor (human IL-22Ra and …); remark: listed apart in the source

Binder	EC50, luciferase reporter gene (STAT3-induced promoter) in BHK cells expressing human IL-22Ra and IL-10Rb [1] [nM]	EC50, pSTAT3 (AlphaScreen SureFire STAT3 p-Tyr705) in HepG2 cells [2] [nM]	potency in BHK cell reporter gene assay, fold reduction against hIL-22 [3] [fold]	potency in HepG2 pSTAT3 assay, fold reduction against hIL-22 [3] [fold]
Derivative 2 (ligand, C18 diacid attached by linker γGlu-OEG-OEG-C2DA-Ac to Cys at site -7C (in the 15-mer N-terminal peptide G-P-G-S-G-S-G-S-C-G-S-G-S-G-S, numbered negatively from hIL-22 residue 1)) GPGSGSGSCGSGSGSAPISSHCRLDKSNFQQPYITNRTFMLAKEASLADNNTDVRLIGEKLFHGVSMSERCYLMKQVLNFTLEEVLFPQSDRFQPYMQEVVPFLARLSNRLSTCHIEGDDLHIQRNVQKLKDTVKKLGESGEIKAIGELDLLFMSLRNACI		6.98		
Derivative 4 (ligand, C16 diacid attached by linker γGlu-OEG-OEG-C2DA-Ac to Cys at site -7C (in the 15-mer N-terminal peptide)) GPGSGSGSCGSGSGSAPISSHCRLDKSNFQQPYITNRTFMLAKEASLADNNTDVRLIGEKLFHGVSMSERCYLMKQVLNFTLEEVLFPQSDRFQPYMQEVVPFLARLSNRLSTCHIEGDDLHIQRNVQKLKDTVKKLGESGEIKAIGELDLLFMSLRNACI	0.18			
Comparator 4 (ligand) GPGCPISSHCRLDKSNFQQPYITNRTFMLAKEASLADNNTDVRLIGEKLFHGVSMSERCYLMKQVLNFTLEEVLFPQSDRFQPYMQEVVPFLARLSNRLSTCHIEGDDLHIQRNVQKLKDTVKKLGESGEIKAIGELDLLFMSLRNACI		12.1		
Derivative 1 (ligand, C18 diacid attached by linker γGlu-OEG-OEG-C2DA-Ac to Cys at site 1C (Cys substituted at position 1 of hIL-22, after the G-P-G N-terminal peptide)) GPGCPISSHCRLDKSNFQQPYITNRTFMLAKEASLADNNTDVRLIGEKLFHGVSMSERCYLMKQVLNFTLEEVLFPQSDRFQPYMQEVVPFLARLSNRLSTCHIEGDDLHIQRNVQKLKDTVKKLGESGEIKAIGELDLLFMSLRNACI	0.48	10.1	7	2.5
Derivative 3 (ligand, C16 diacid attached by linker γGlu-OEG-OEG-C2DA-Ac to Cys at site 1C (Cys substituted at position 1 of hIL-22)) GPGCPISSHCRLDKSNFQQPYITNRTFMLAKEASLADNNTDVRLIGEKLFHGVSMSERCYLMKQVLNFTLEEVLFPQSDRFQPYMQEVVPFLARLSNRLSTCHIEGDDLHIQRNVQKLKDTVKKLGESGEIKAIGELDLLFMSLRNACI	0.3		4	
native mature human IL-22 (hIL-22) (ligand) APISSHCRLDKSNFQQPYITNRTFMLAKEASLADNNTDVRLIGEKLFHGVSMSERCYLMKQVLNFTLEEVLFPQSDRFQPYMQEVVPFLARLSNRLSTCHIEGDDLHIQRNVQKLKDTVKKLGESGEIKAIGELDLLFMSLRNACI	0.07	3.88		
Comparator 1 (ligand) GPISSHCRLDKSNFQQPYITNRTFMLAKEASLADNNTDVRLIGEKLFHGVSMSERCYLMKQVLNFTLEEVLFPQSDRFQPYMQEVVPFLARLSNRLSTCHIEGDDLHIQRNVQKLKDTVKKLGESGEIKAIGELDLLFMSLRNACI	0.06	4.73		
Derivative 9 (ligand, C18 diacid attached by linker γGlu-OEG-OEG-C2DA-Ac to Cys at site 33C (Cys substituted at position 33 of hIL-22)) APISSHCRLDKSNFQQPYITNRTFMLAKEASLCDQNTDVRLIGEKLFHGVSMSERCYLMKQVLQFTLEEVLFPQSDRFQPYMQEVVPFLARLSNRLSTCHIEGDDLHIQRNVQKLKDTVKKLGESGEIKAIGELDLLFMSLRNACI	0.28			

The next lines start with the values.

EC50, luciferase reporter gene (STAT3-induced promoter) in BHK cells expressing human IL-22Ra and IL-10Rb [1] [nM]	EC50, pSTAT3 (AlphaScreen SureFire STAT3 p-Tyr705) in HepG2 cells [2] [nM]	potency in BHK cell reporter gene assay, fold reduction against hIL-22 [3] [fold]	potency in HepG2 pSTAT3 assay, fold reduction against hIL-22 [3] [fold]	Binder
1.24				Derivative 8 (ligand, C18 diacid attached by linker γGlu-OEG-OEG-C2DA-Ac to Cys at site 6C (Cys substituted at position 6 of hIL-22)) GAPISSCCRLDKSNFQQPYITNRTFMLAKEASLADQNTDVRLIGEKLFHGVSMSERCYLMKQVLQFTLEEVLFPQSDRFQPYMQEVVPFLARLSNRLSTCHIEGDDLHIQRNVQKLKDTVKKLGESGEIKAIGELDLLFMSLRNACI
0.37				Derivative 10 (ligand, C16 diacid attached by linker γGlu-OEG-OEG-C2DA-Ac to Cys at site 1C (Cys substituted at position 1 of hIL-22)) GPGCPISSHCRLDKSNFQQPYITNRTFMLAKEASLADQNTDVRLIGEKLFHGVSMSERCYLMKQVLQFTLEEVLFPQSDRFQPYMQEVVPFLARLSNRLSTCHIEGDDLHIQRNVQKLKDTVKKLGESGEIKAIGELDLLFMSLRNACI
0.19				Comparator 5 (ligand) GPGCPISSHCRLDKSNFQQPYITNRTFMLAKEASLADQNTDVRLIGEKLFHGVSMSERCYLMKQVLQFTLEEVLFPQSDRFQPYMQEVVPFLARLSNRLSTCHIEGDDLHIQRNVQKLKDTVKKLGESGEIKAIGELDLLFMSLRNACI
0.61	14.9			Derivative 6 (ligand, C18 diacid attached by linker γGlu-OEG-OEG-C2DA-Ac to Cys at site 1C (Cys substituted at position 1 of hIL-22)) GPGCPISSHCRLDKSNFQQPYITNRTFMLAKEASLADQNTDVRLIGEKLFHGVSMSERCYLMKQVLQFTLEEVLFPQSDRFQPYMQEVVPFLARLSNRLSTCHIEGDDLHIQRNVQKLKDTVKKLGESGEIKAIGELDLLFMSLRNACI
